Measured values as given in the DeepSol protein solubility set.

Assay: soluble on expression in E. coli; label from the status in PepcDB or PDB records

Row | Sequence | soluble on expression in E. coli
1 | SLFAKATRNFLREVDADGDLIAVSNLNDSDKLQLLSLVTKKKRFWCWQRPKYQFLSLTLGDVLIEDQFPSPVVVESDFVKYEGKFANHVSGTLETALGKVKLNLGGSSRVESQSSFGTLRKQEVDLQQLIRDSAERTINLRNPVLQQVLEGRNEVLCVLTQKITTMQKCVISEHMQVEEKCGGIVGIQTKTVQVSATEDGNVTKDSNVVLEIPAATTIAYGVIELYVKLDGQFEFCLLRGKQGGFENKKRIDSVYLDPLVFREFAFIDMPDAAHGISSQDGPLSVLKQATLLLERNFHPFAELPEPQQTALSDIFQAVLFDDELLMVLEPVCDDLVSGLSPTVAVLGELKPRQQQDLVAFLQLVGCSLQGGCPGPEDAGSKQLFMTAYFLVSALAEMPDSAAALLGTCCKLQIIPTLCHLLRALSDDGVSDLEDPTLTPLKDTERFGIVQRLFASADISLERLKSSVKAVILKDSKVFPLLLCITLNGLCALGREHSEG | not soluble
2 | MKRFNDFSKMKAFKDAQEHGKNRYKDVGCLDNNRVKLGGAWPHEYIHANYVSTPTNPKRFICTQAPLEKTCADFWFMCLQDRVETIFMLCNYKEKGAKKCHEYLPTEDNKDTMSFKEKGQKVTVKFESSKAIKFRDNSAAKVTKTVLTVEGAGCDKLKVNHYHWIDWPDRGVPTADNAILELLEKARVSKGPIAVHCSAGIGRTGSVVMLEYVMDQLLAGQIIEDTDKIIQKIREQRNNSVQTDHQYLFVHQVMMNFFEKRGLLDEATSAIHKDFTDQYSKCVL | not soluble
3 | MFDIGFGELLLVMVLGLIVLGPERLPVAVRTVASWIRTLRSLASTVQNELSQELKLQEFQESLKKVEKASLQNLSPELKASMDELKDAAEAMKRGYTETPSPQKSDDPKKSGDHSATVEPQSNIPLNDPEAAYDGVIEAETAVRPADSQQKPENAAVAENHNDGRHATSDEAVGNNNVKPEQSQPSAASARQPSDSRLEHHHHHH | not soluble
4 | MQKVEGIIFDMDGVLFDSERISLEFWMETFEKYGYTMTKEIYTSVMGRNRKGIIEGLTDIYDSSVPIIDLYDEKTKNMIEFMERKGAPIKLGVNELISFLKENGYKMAVATSTKRERAVKRLAKANLKDYFDAIVCGDDVVNSKPNPEIFLKAAKKINVNPKNCIVIEDSPMGVEAAYNGGIRCINVPDLKEPDEQIKSQSHKILENLLEVREYLKSLNSKECHNL | not soluble
5 | GAACNVLFINSVEMESLTGPQAISKAVAETLVADPTPTATIVHFKVSAQGITLTDNQRKLFFRRHYPLNTVTFCDLDPQERKWTKTDGSGPAKLFGFVARKQGSTTDNVCHLFAELDPDQPAAAIVNFVSRVML | soluble
6 | SLDLFISRHLEQLNSLSFKATPLFEHKAQFYAAPSYLEKYGTPQNVEELTKHNILIWGEKPAREIKTNRGKRMSLSGNFATTNPEALFHGAKRGMGILMTNNVMIKDDLKSGALVPILPDVTADEATVYAYYPKLDYQHTRTQLFLDYLKSRLEEEKRI | not soluble
7 | MAHHHHHHMVNRSTRLQRGPLKKKTTAVAARTSSHAEQPCADGPAKTSSPQTNSIKNVEMTVGVHASPAVAVGDTPQGKLRLRRRAKKDRPLVAAKTDMKSTVRNRKRGRARGSQPGRGSTATTIVHDEQRVTRRPAGGNRQRNQHRQLAEKLVAREEHQSRKKAAEKRMETAKAELALFDQVMQIPSFEENPFAAIEGHLNGTMAFLQPQTPDVGRRKLEE | not soluble
8 | MQIVQIARPGSMKGWIRKAVARYAHATGRGGKFYRRFCNPSGLEWGAYLARWGNFHSVGSNFYVNTGCKFLDPSLVRIGNSVGLSDCTLIGHDGVVLLIEHRFGKHLDSVGFIDIKDNCFIGHGAIVMPRVTIGPESIVAAGAVVTKDVPPGTVYGGNPAEFICTTEQLIKRVEARCEAYPWIDLVKQRNGAYDPEVEPLLMAQRRQYFFGDSLEHHHHHH | not soluble
9 | MSDKDFFSWRRTMLLRFQRMETAEEVYHEIELQAQQLEYDYYSLCVRHPVPFTRPKVAFYTNYPEAWVSYYQAKNFLAIDPVLNPENFSQGHLMWNDDLFSEAQPLWEAARAHGLRRGVTQYLMLPERALGFLSFSRCSAREIPILSDELQLKMQLLVRESLMALMRLNDE | soluble
10 | MMNMITVIGFGSFGRKVVNFIKNKEPITIIDKNIDDADDLVKEGVTVIVGDATQDEVLKKAKIENADIVLILTNEPEVNRRIAERVCELSPNSYKIARAIPRYPELYMGLNIDKIINILESGAKDIAKEVEDAKLKRKLMQLKSVLIEGKKRCMKLEKTEEEKKAPLLILTHINPDPDAIASAMALKTLAERWGVDSDIAYGGNIGYDENKAMINLLGIKLLNVEDIDLDNYCVIAVIDTSTSKQLPIELPNIDIIIDHHNNTDLTAKYMDVRPEVGATASILTQYLMELDIEPSRNLATALFYGIQSDTDYFKRETSKLDFEAAAYLQSYIDASILNMIENPEISTEVMEVLAKAVMNRRVVKGNIALAYVGEISNRDALPKAADFLLKMEGISTTFVFGIVGDEIHISARTKDLRLNLGEILNKAFGGGGHQTAAAAKIPLGIFKAVSDKEALRKLVEEAIRAKILEVIGIKEEEK | not soluble
11 | MNLPQNIRYRRYQDWTEEEIKSIKTNVALSPWHTTYHIEPKTGLLNDPNGFSYFNGKFNLFYQNWPFGAAHGLKSWIHTESEDLVHFKETGTVLYPDTSHDSHGAYSGSAYEIGDQLFLFYTGNVRDENWVRHPLQIGAFMDKKGNIQKFTDVLIKQPNDVTEHFRDPQIFNYKGQFYAIVGAQSLDKKGFIKLYKAVDNDIKNWQEVGNLDFGGSKSEYMIECPNLVFINEQPVLIYSPQGLSKSELDYHNIYPNTYKVCQSFDTEKPALVDASEIQNLDFGFECYATQAFNAPDGRVYAVSWIGLPDIDYPSDSYDYQGALSLVKELSLKHGKLYQYPVEAVRSLRSEKEAVTYKPETNNTYELELTFDSSSVNELLLFADNKGNGLAITVDTKMGTILIDRSKAGEQYALEFGSQRSCSIQAKETVVNIFVDKSIFEIFINKGEKVFTGRVFPNDKQTGIVIKSGKPSGNYYELKYLEHHHHHH | soluble
12 | MVQHQMFDPGVADLLDTDILTSPSKRKRKLKIDDISTSDRSELEDYIVLENVYRMFGITFFPLVDPIDLKIKDASGEIFVDREMLGIRLEVFSERTSQFEKPHYVLLKKRIKSNSWFLFKHTIPSFIDVQGIFDDTNGGLVISHDDAYLFAKRVFLQLVEVQKRRQIFKDLEAKKIIHDLDLDLESSMVSFFVKDIKVELFVKQNEIVSCSILDDIHDFSQNNKSKWEIALLGSLDDLELKLNHSFATIFK | not soluble
13 | DQRRRFIEAVLSGVTAAVIGVGRDRRITIFNPSSEGMLKKAAPELIGANLSDVAPEIEAVLVEAESRYRNDYRKQINIMRGGTERTMNVQVTREEGDESHGSYVITVDDIT | not soluble
14 | MGSDKIHHHHHHMICEFSESVLDGIADALVDRGYICVDNLFEPEVVVRLRDKVFTKADETFKPASIGRGQEQHRNTDIRRDSIRWLEPQCAVDNQYLSLMESLKNGLNRRLFMGLFDYESHYALYRPGAFYKKHVDALKGSQNRILTTVFFMNPEWQPDHGGVLKLYEEDDSLIEELAPLMGRLVIFLSERFPHEVMPTTVDRASIAGWFRVAGSQHGF | not soluble
15 | MGSDKIHHHHHHMYSDLNEGVKPYRMTKSHKNIKQCDLLIAGGAAVGLTLAIALKQAAPELKINIVDAAPQEVIPVSNIRALALAAASIRMLKQLQCWEHIAPHAQPIHSMIITDAYTNDPVKPTLLTFEGDITPNEPFAAMVEHKELLNALKKRAKDLDIPFITNMRIVDFHQEDQHTTVTLSNKEIWQTKLLIAADGAHSKLREKAGLKKFSHSYTQTAIICTVEHEKPHHGQAIQHFLPAGPFALLPLKGNRSAIVWNEDHKTAQYYLKADALIFETEIEKRIGHRYGKLSWNGERQGFPLNLSLTRQCIKPRFALIGDAAHTIHPLAGQGLNLGLRDSAALAEVIIETARLGLDIGSLTALERYQSWRRFEIVRMALSNDWLNKLFSNDNLLLRTLRDVGLGIVNQTPKVKKYFIQEAAGLTPHAPRLLHGLPL | not soluble
16 | AIATSCHIAEEHIQKVAIFGGTHGNELTGVFLVKHWLENGAEIQRTGLEVKPFITNPRAVKKCTRYIDCDLNRIFDLENLGKKMSEDLPYEVRRAQEINHLFGPKDSEDSYDIIFDLHNTTSNMGCTLILEDSRNNFLIQMFHYIKTSLAPLPCYVYLIEHPSLKYATTRSIAKYPVGIEVGPQPQGVLRADILDQMRKMIKHALDFIHHFNEGKEFPPCAIEVYKIIEKVDYPRDENGEIAAIIHPNLQDQDWKPLHPGDPMFLTLDGKTIPLGGDCTVYPVFVNEAAYYEKKEAFAKTTKLTLNAKSIRCCLH | soluble
17 | MAHHHHHHMANIITLKSAWDVDRHIVLDSADKLVLIRFSSYTSAAVEAEEYSRQVKRGTATSTSTVAEGSSNSSSSALPTRKRRHDDADGNSACAVTSAATAALLSANVDEHYLRTRQMDALLSELAPKVRKYCTIYFVDTREVTAFNELYELGHDRDPFAVMFFYRNRHIRVDVGTGNNNKINFFAFEDLYDFLPIVDAAYKAGRQGRSIASCDRKFSTVALRR | soluble
18 | MKKIDSAVAVEPAATVPKGRKNNPEKTREDILKAAVAEFVAHGLTGARVDAIAERTKTSKRMIYYYFGSKEQLYVEVLEKLYGAIRNTESELNLGELEPVEAIHRVVEFTFDHHDSNVDFVRIVCIENIHNGENVKQSDTIQAKSQNIIRALDGILRRGEASGLFRDGVHPVDLHLMISSFCFYRISNRHTFSEIFQIELWSEEVKQRHKAMICDAVLRYLKR | not soluble
19 | MSAAPGTISPPARELKTSAICGYLHRIEVRSIGLITRRRYWFALCDSTPYLYWYKDSDDIKCIGRVSLSGAAFTYDPREKGRFEIHSNNEVIALECSSDKQRNEWMKALQSTRKRSWKATKSKSDSSLDISSLTGRNSSSVLEECSSPSPVPPPRSPKPKKRTQFLTEEETDAETSSDVPHSSEETAEVVEDTDNTKIPAEGSATEWYLNPNGQLNERSLQMPKTIESPETVLKRLADQSIEAPFRAIRRNLSTWSRSRQNTSDEPVVGSRKGTVSSVDLTPEEKVIELSDKVSSLEEVVDSLRAALLLAQRNNEALQKIEDMGDNKEEMREYILEKERQVTELHISNSMNARRVRDLEDQNVRLEDTINDLQQSVEAFRESLRTKEELILRMCEEENREDLLGSISERSSNIPADANGLVSDVEVPEGILVDVSSVDCEEATRKVLDEENVRDIGELQDLVEGYRTQNQFLNAEIVQLHAITQSLEDREKKLIRQNFDLEACYYQLKSRYLMVLNHFKSPTKPGKIMEPGVLKELLEESARTPRESQQNLTDQLGFYKKDDFSESDDLLDTATFYMKKAGDVVEATKLEQSEEYMKWLQSWDAFLVNNTVSRQTAIMSSPDLKTLIRTGVPPAYRGRVWKIIVTHWVKDKQAELGNGYYQSMLRKAGTKKQDGSYDAAIKQIDLDLARTLPTNKLFDEPDSANIEKLRNVLYAFRYHNSHVGYCQGLNRLAAIALLNLDEQDSFWFLVACVEHLQPEGYYTSSLIGAVADQKVLRDLVAEKLPKLAAHLRALEVDLSLFALSWFLTCFVDVLPHSIYLTIFDAFLYEGNKVLFRFALALFKICEPHVLQCKTIGTVHQCLSKAQEHIIDFKSLAQVAFNELNPFPQKTIETKRQLYLTQLKDTGHCM | not soluble
20 | MGSDKIHHHHHHMWQAISRLLEEHHGTADIQEHRELPGGEIHPAWYVRYGEHDVFVKCDSREMLAKFTAEADQLHLLSRSNTVRVPKVYGVGSSRDYSFLLLQYLPVKPLDAHSAWCLGEQLARLHQWSDQPQFGLDFDNDLSTTPQPNSWQRRWATFFAEQRIGWQLQLAAEKGMHFGHIETLIARVDERLAGHQPQPSLLHGDLWPDNCANSQDGGYLFDPACYWGDRECDLAMLPRYPALPAQIYDGYQSVWPLDKDFIDRQPIYQIYYLLNRANLFGGKNIVEAQQLIERQLLS | not soluble
